Experimental findings from the supplement of paper PMC12764529 are described below.

± gives the half width of the 95% confidence interval.

Series [1] is described as follows: folding stability dG unfold from trypsin proteolysis; higher = more stable. In short, it runs like this:
(§1)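 Digests were run with trypsin and chymotrypsin at 11 concentrations in threefold dilutions, plus a no-protease condition, on designed mini-proteins in a PA-tagged cDNA display construct. The mini-proteins were under 80 residues, had no cysteine, and were kept only when AlphaFold2 dimer inter-PAE was above 15. After sequencing, Bayesian fitting of the counts gave K50, from which unfolding free energy was derived against a sequence-predicted unfolded-state K50 and a shared folded-state K50, per protease or combined.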

Series [2] can be described thus: folding stability dG unfold from chymotrypsin proteolysis; higher = more stable. The gist of the method: as §1
Series [3] can be described thus: folding stability dG unfold (combined trypsin and chymotrypsin); higher = more stable. The gist of the method:
as §1

For the sequence “SSPKIVVEVTLDGNPRTITIPSSLSLEEIKEKILEALKEEGIEDVPIEEIKIKKEEELPTEEGESKIVVSSA [r9_1053_JUSTAS]”, the “folding stability dG unfold” value came to 0.999 ± 0.066 kcal/mol in series [1], 2.08 ± 0.087 kcal/mol in series [2] and 1.76 ± 0.15 kcal/mol in series [3].
The corresponding values for “SSPLDPAGRFTIEVVFTTSADGTLTATFTITAPGGVPLKTLTRSFTNPSPGKAAAVEEAEALKAEIEAAASA [r9_739_JUSTAS]” are 1.3 ± 0.025 kcal/mol, 2.35 ± 0.047 kcal/mol and 1.97 ± 0.064 kcal/mol.
The corresponding values for “SSPSSVPDAVVQALKEAHPDVVSIEVTPLPPESTRISVTLKSGSGSSTVSFSIPSPEGVTRTYTVSVSNPSA [r9_678_JUSTAS]” are 0.839 ± 0.063 kcal/mol, 1.18 ± 0.091 kcal/mol and 1.04 ± 0.064 kcal/mol.
The corresponding values for “SSPVSFSTSTTSPPSPSSLPDGSTLSTTTTTYTAPDGSRYTVTSTTLTPPTGPATPVSTTTTSTGSSGPSSA [r9_394_JUSTAS]” are 0.514 ± 0.018 kcal/mol, 1.08 ± 0.043 kcal/mol and 0.872 ± 0.046 kcal/mol.
On to “SSSIKTSTTTSTEPATGTTTTTTTVTYPDGTTTTTTTTTLPDGTTTVTTTTTPPDGSVTSTTTTLTSLTTTS [r1_461_JUSTAS]”, for which the “folding stability dG unfold” value in series [1] came out at 1.24 ± 0.1 kcal/mol; in series [2], 0.655 ± 0.043 kcal/mol; in series [3], 0.904 ± 0.17 kcal/mol.
The matching figures for “SSSMPVTVEIEAKKLSNGKYLAKITVKDANGNELEEYEKEMDESEVEKLKEELKKKYPNMKVTMTYKDELSA [r9_374_JUSTAS]”: 3.3 ± 0.34 kcal/mol, 4.17 ± 0.14 kcal/mol and 4.17 ± 0.45 kcal/mol.
The matching figures for “SSSPLPSPVTLPNGTVVYYFPDTGLVLTLDPKTGTGTVTYVTTDPQGNPTFFPSTVTFDPPTGKVVEVVASA [r9_122_JUSTAS]”: 0.904 ± 0.058 kcal/mol, 2.77 ± 0.033 kcal/mol and 2.39 ± 0.079 kcal/mol.
The corresponding values for “SSSVTRTYTVTLPGSTVSIEITEKPNPEGSTTVTITVTTTKPGGGSTTTTVTKNITGLTLEDILKEAISSSA [r9_217_JUSTAS]” are 3.38 ± 0.092 kcal/mol, 3.68 ± 0.05 kcal/mol and 3.57 ± 0.057 kcal/mol.
Regarding “SSVEELSPEQRREQLRELLRQIREARREGDPEEERRLLEELRRLIEQLPDEEREEVRRLLEELGLPVEELSA [r9_182_TrROS_Hall]”, the entries for the “folding stability dG unfold” value in series [1], in series [2] and in series [3] were 4.27 ± 0.21 kcal/mol, 3.72 ± 0.19 kcal/mol and 4.05 ± 0.19 kcal/mol, respectively.
In the case of “SSVEIKLYYDPVTNKYYVEITITAPPGDPAAVEARAAAVREEVKEALKAKGLVPDEIKVTVNVVSPAVPGSA [r9_117_JUSTAS]”, the “folding stability dG unfold” value was 4.09 ± 0.15 kcal/mol in series [1], 4.27 ± 0.21 kcal/mol in series [2] and 4.37 ± 0.21 kcal/mol in series [3].
As to “SSVTLTLTAPLPDNTTVTVEVTLTPLPEKGLVVANPTVTVTTLTPDADGNLTTSSAPATFTVVVPPELAFSA [r9_1137_TrMRF]”, the “folding stability dG unfold” value stood at 1.48 ± 0.061 kcal/mol in series [1], 2.1 ± 0.11 kcal/mol in series [2] and 1.86 ± 0.11 kcal/mol in series [3].
The corresponding values for “STAEELATYIAKTIQKRFPPGYRITDVRIERNPNGYVELPFTIEPPNGRPWTVEIWIDADNGEIEIEIQWSA [r9_219_TrROS]” are 2.47 ± 0.06 kcal/mol, 3.183 ± 0.017 kcal/mol and 2.92 ± 0.068 kcal/mol.
The corresponding values for “STMTLKELKERFPGFPPEMIEEIAERAENDPPGEEVEIYIRFPNGYPIYITVTKPDTVTIQFIPPGEPVYSA [r9_1024_TrROS]” are 1.23 ± 0.089 kcal/mol, 1.01 ± 0.22 kcal/mol and 1.24 ± 0.26 kcal/mol.
The corresponding values for “SVEEFRELLPDAVIEAEPLSPDRLLIRLYVPEDPEKLNPLAERVRELAEEIERETGLPVLIEIIPVPPESSA [r9_1099_TrMRF]” are 1.53 ± 0.033 kcal/mol, 1.27 ± 0.014 kcal/mol and 1.41 ± 0.028 kcal/mol.
For the sequence “SVKTSSSMAPPDRIVLKITDPETDKVTTITVPLDLPEDEPVAVHDPEAPSERTVAEIKALAEAGKSVSGLSA [r9_250_JUSTAS]”, the “folding stability dG unfold” value in series [1] is -0.176 ± 0.16 kcal/mol; in series [2], -0.55 ± 0.35 kcal/mol; in series [3], -0.142 ± 0.18 kcal/mol.
The corresponding values for “SVPIALPGVPPGFSLEEVAALITEKIKALGYTLKDIKVTPHPDNTVTITITVEKGEKTVKKVTTEINPPVSA [r9_953_JUSTAS]” are 1.56 ± 0.15 kcal/mol, 2.95 ± 0.097 kcal/mol and 2.56 ± 0.36 kcal/mol.
The corresponding values for “SVRIHGPDGQWFPVDDIEFDPNNNKFTFKFPGGKHKFPLPPGWQIEIDKDNAWIRVRPMPPPPPEDKEAKSA [r9_551_TrROS]” are 2.88 ± 0.24 kcal/mol, 2.25 ± 0.061 kcal/mol and 2.68 ± 0.34 kcal/mol.
The corresponding values for “SVSSKISKVVSETVEDDKRTVTIEVNVPSPVVEIYDSSGKVIKTVPLGKKTTITVTTDPKGTSVSVKVLNSA [r9_917_JUSTAS]” are 0.46 ± 0.12 kcal/mol, 0.967 ± 0.044 kcal/mol and 0.697 ± 0.11 kcal/mol.
Take “SVTITKDGNKITVTLSVNGPFTLQVNKESSTSSFSVPADESATLTIDVPNTTYKVVVEKPGQPVSTYDLLSA [r9_411_JUSTAS]”: the “folding stability dG unfold” value in series [1] is 1.8 ± 0.12 kcal/mol; in series [2], 2.08 ± 0.17 kcal/mol; in series [3], 1.97 ± 0.23 kcal/mol.
On to “SVTRDPDGKITVDVDVRRTPDGFYYVEVKLQLKDGKPIFPVPAPVKNPEDGVKRMKEFAETFAKEFLKKWSA [r9_739_TrROS]”, for which the “folding stability dG unfold” value in series [1] was 1.35 ± 0.058 kcal/mol; in series [2], 2.42 ± 0.087 kcal/mol; in series [3], 2.04 ± 0.15 kcal/mol.
The matching figures for “SVVRLPNGEWFEVDGRLVRVTVDEETGEIVDVEVYEVTVEEPPPPPPPLEVTVTVEPDAPPGATITITVTSA [r9_90_TrROS_Hall]”: 1.8 ± 0.13 kcal/mol, 1.48 ± 0.12 kcal/mol and 1.5 ± 0.27 kcal/mol.
“SWIPVKEIAKYIAREFGMPKENLDNIEEVDPITVHPNPDGWVQVEATIRFRNPRNGKGHEMRIEIHVPKKSA [r9_230_TrROS]”: the figures for the “folding stability dG unfold” value in series [1], in series [2] and in series [3] were 1.66 ± 0.024 kcal/mol, 2.22 ± 0.11 kcal/mol and 1.96 ± 0.09 kcal/mol, respectively.
The matching figures for “SWKIEIPVLVKVDPGETMDEMKDQVVEIADMIAKYMQKQGGPIEVDVDVTPDPEEGYIFVTVEIEVPPGASA [r9_1161_TrROS]”: 1.03 ± 0.13 kcal/mol, 2.9 ± 0.13 kcal/mol and 2.39 ± 0.29 kcal/mol.
The matching figures for “SWLKLPPGQKVITFQFQYPLPPGQSADDLVDNMEKELREFFGPGVKIEVNVQWDPNNGYFRVSVTIVIPKSA [r9_657_TrROS]”: 1.86 ± 0.057 kcal/mol, 1.21 ± 0.17 kcal/mol and 1.63 ± 0.2 kcal/mol.
For “SWMLRIRNPDDGKTREIKLPNMPPTVQKDGWISITNPQFLNQLLDALPPDYKIDEVEFMPGGMHTMKVKPSA [r9_997_TrROS]”, the “folding stability dG unfold” value was 0.0269 ± 0.17 kcal/mol in series [1], -0.067 ± 0.32 kcal/mol in series [2] and 0.019 ± 0.12 kcal/mol in series [3].
The matching figures for “SWVEIPPDKIKDLMNRFQNGDWEEIVDLLKDLGFKNVTIEPQRNNGQRYFTIWVEHPDGPVIIEMPPSDISA [r9_783_TrROS]”: 2.39 ± 0.082 kcal/mol, 2.87 ± 0.044 kcal/mol and 2.72 ± 0.097 kcal/mol.
The corresponding values for “SWYHIQFWLEGNSIEELMKWAKELAKQGNFEITKISNEHMHITIEIKLKPPPPPPPPPPKEEYDGDGKPKSA [r9_830_TrROS]” are 2.53 ± 0.56 kcal/mol, 2.37 ± 0.19 kcal/mol and 2.22 ± 0.46 kcal/mol.
